{"source": "paper PMC4687524", "about": "“Molecular Properties and Functional Divergence of the Dehydroascorbate Reductase Gene Family in Lower and Higher Plants” (PLoS ONE, 2015)", "test_in_all_cases": "A265 increase (ascorbate formation), nonlinear regression", "key": {"ZmDHAR2": {"system": "T1, ZmDHAR2", "T1 construct": "gene DHAR2; clade I", "format": "biochemical, Zea mays", "settings": "0.42 mM GSH; DHA 0.013-1.677 mM; 90 mM potassium phosphate pH 6.5, 25 C; read-out: Kinetic constants / K m ^DHA", "description": "A265 increase (ascorbate formation), nonlinear regression on ZmDHAR2"}, "[1]": {"substrate": "O=C1O[C@H]([C@@H](O)CO)C(=O)C1=O", "format": "biochemical, Selaginella moellendorffii", "settings": "0.42 mM GSH, DHA 0.013-1.677 mM, 90 mM potassium phosphate pH 6.5, 25 C", "description": "A265 increase (ascorbate formation), nonlinear regression on SmDHAR1"}, "[2]": {"substrate": "O=C1O[C@H]([C@@H](O)CO)C(=O)C1=O", "format": "biochemical, Picea abies", "settings": "0.42 mM GSH, DHA 0.013-1.677 mM, 90 mM potassium phosphate pH 6.5, 25 C", "description": "A265 increase (ascorbate formation), nonlinear regression on PabDHAR2"}}}
{"molecule": "O=C1O[C@H]([C@@H](O)CO)C(=O)C1=O", "note": "[dehydroascorbate]", "values": [{"measurement": "Km", "setting": "ZmDHAR2", "value": "68 ± 9", "unit": "µM"}]}
{"molecule": "SmDHAR1 (Selaginella moellendorffii) (protein, full length without predicted signal peptide, N-terminal 6xHis (pET-30a), E. coli BL21(DE3), Ni Sepharose; cytosolic, clade I) MAVATTEAVEVLVKAANGDPSRLGDCPFSQRVLLTLEEKGIPYNSKFVDMENKPAWFLEANPEGKVPVVKDDGKWVADSDVITQLIETKFPSPSLVTPPEKSSVGSKIFSSFVKFLKSKDPSDGSEAALLEELKTLDEYLAKNGPFVNGSNISAVDLSLAPKLYHLKIALGHYKQWSVPQNLTNLNSYMEALFKRESFQKTMAPAEVVVKGWAKHLSA", "values": [{"measurement": "Km", "setting": "[1]", "value": "115 ± 4", "unit": "µM"}]}
{"molecule": "PabDHAR2 (Picea abies) (protein, full length without predicted signal peptide, N-terminal 6xHis (pET-30a), E. coli BL21(DE3), Ni Sepharose; cytosolic, clade II, five exons) MSDLEIFSKAAPGTGSPSKERGDCPFSQRIFLELEELGLPYTATYIQEGADKPHWFMEKNPSGLMPVLRDRETWIQDSDKIAQYLDDHYAENTLRTQVEFKNVGSKIFPIFTKWLQCKDPNSACRDEFVDELVGFDRHLQNHGPYIAGKRPTDSDFALAPKLRHARVALAHFMDFQFPRELGALQNYMNRMESRESFEKTNYPNDMIIQGWRAKFNLPEKIANAS", "values": [{"measurement": "Km", "setting": "[2]", "value": "118 ± 1", "unit": "µM"}]}
